Among the data in the supplement of paper PMC10567573 are protein stability index values, retold here.

± gives the standard deviation.

The nature of the series: protein stability index of a GFP-peptide fusion (GPS, HEK-293T) (PSI 1-6); higher = more stable.
Where [1] appears, read: treatment: DMSO, c terminus: a fixed tail appended.
Setting [2] is: treatment: MLN4924 1 uM, 8 h, c terminus: a fixed tail appended.
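Note: 24-mer peptide tiles fused after GFP, lentivirally expressed, FACS-sorted into six equal bins by GFP/DsRed ratio, decoded by Illumina sequencing, PSI is the read-weighted mean bin number.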

On to KELADFIRERATIEETYSKAMAKL [FCHO1], for which the protein stability index was 3.16 ± 0.21 under setting [1] and 3.31 ± 0.29 under setting [2].

As for KELEARVRKPAEAERYKLERLAEA [FLOT1], the protein stability index under setting [1] is 4.88 ± 0.29 and the protein stability index under setting [2] was 4.95 ± 0.16.

As to KEQRKQMKGRGQLEKPPAPNQAMV [TBC1D10A], the protein stability index under setting [1] is 4.95 ± 0.1 and the protein stability index under setting [2] turned out to be 5.01 ± 0.34.

As to KFLPSSEEDNDDAKILPSPVQGSS [DRICH1], the protein stability index runs as follows: under setting [1], 5.21 ± 0.25; under setting [2], 5.47 ± 0.17.

KFTNKEWETIRSFKDEWTQLDMFY [AASDHPPT]: the protein stability index runs as follows: under setting [1], 2 ± 0.36; under setting [2], 2.22 ± 0.23.

Consider KGRHHRGRGGEPRAYFMSDTREEK [CHGB], for which the protein stability index runs as follows: under setting [1], 4.93 ± 0.12; under setting [2], 4.95 ± 0.096.

With KGTPASKLILGMPTYGRSFTLASS [CHIT1], the protein stability index is 2.47 ± 0.28 under setting [1] and 2.54 ± 0.21 under setting [2].

Turning to KGVQQKRPSEAQSVILRRYFLELT [DENND6A], the protein stability index worked out at 2.47 ± 0.098 under setting [1] and 2.57 ± 0.22 under setting [2].

For KGYPDGVKSIVVKGYNIWTGGPDA [TLE6], the protein stability index stood at 2.68 ± 0.28 under setting [1] and 2.8 ± 0.49 under setting [2].

On to KHFKVQLVDNVYCIGQRRFHTMDE [NCK2], for which the protein stability index is, setting by setting: under setting [1], 2.48 ± 0.16; under setting [2], 2.44 ± 0.37.

As for KINENVAAGMRFPLPEAIDPDVGV [PCDHGA10], the protein stability index runs as follows: under setting [1], 3.79 ± 0.081; under setting [2], 4.26 ± 0.44.

For the sequence KKGLFLKHVEYEVSSQRFKSSVYR [SNX8], the protein stability index turned out to be 2.38 ± 0.14 under setting [1] and 2.91 ± 0.28 under setting [2].

On to KKKYMPYNHQHKYFFLIGPPALLP [FADS1], for which the protein stability index turned out to be 3.14 ± 0.67 under setting [1] and 1.76 ± 0.053 under setting [2].

Take KKVLNHGYDDDNHDYIVRSGERWL [DYRK1B]: the protein stability index under setting [1] came to 3.27 ± 0.39 and the protein stability index under setting [2] is 3.55 ± 0.49.

Take KLERIARLEDKVKTLKAENAGLSS [JUNB]: the protein stability index runs as follows: under setting [1], 3.85 ± 0.34; under setting [2], 3.97 ± 0.22.

Regarding KLKLTNNHLDPFGHIILNSMHKYQ [TBX5], the protein stability index worked out at 2.26 ± 0.37 under setting [1] and 2.34 ± 0.25 under setting [2].

KLPLPSTLRSHLKSFSMAKGLNAR [RAB40A]: the protein stability index is, setting by setting: under setting [1], 2.56 ± 0.18; under setting [2], 2.68 ± 0.15.

On to KLVVHDCPVWDIFDSDWYTSRNLI [RHOBTB3], for which the protein stability index stood at 2.62 ± 0.43 under setting [1] and 2.66 ± 0.18 under setting [2].

Turning to KMIGFPSSAGSVSPRSTSVTTTSS [KRT13], the protein stability index reads like this: under setting [1], 4.4 ± 0.067; under setting [2], 4.16 ± 0.096.

In the case of KPAEYGYVSLGRLGAAKGALHPGC [CEBPB], the protein stability index came out at 2.94 ± 0.11 under setting [1] and 3.06 ± 0.32 under setting [2].

As for KPAFIGKTNLDGMITVQLPEVPAN [PTPRD], the protein stability index by setting is: under setting [1], 3.77 ± 0.16; under setting [2], 3.81 ± 0.19.

Consider KQQNVAHCMLVSNRVSWWGSTLAM [ZBED1], for which the protein stability index runs as follows: under setting [1], 2.19 ± 0.37; under setting [2], 2.03 ± 0.31.

For the sequence KRCINLWKYALDMQQSNLDPLSPM [FEM1C], the protein stability index by setting is: under setting [1], 2.33 ± 0.48; under setting [2], 2.07 ± 0.38.

For the sequence KREEEALEERRLSRGEIPTLQRS [PKD2L1], the protein stability index was determined as 5.33 ± 0.22 (treatment: DMSO, c terminus: native) and 5.23 ± 0.28 (treatment: MLN4924 1 uM, 8 h, c terminus: native).

For the sequence KRNKRNPIFQDSQDTEVFSWSDNE [FAM104B], the protein stability index stood at 4.46 ± 0.21 under setting [1] and 4.58 ± 0.22 under setting [2].

Regarding KRQVPTEQAQAYAERLGVTFFEVS [RAB40B], the protein stability index turned out to be 2.99 ± 0.22 under setting [1] and 3.23 ± 0.23 under setting [2].

As for KSKVVGDRENGSDNLPSSAGSGDK [TPD52L2], the protein stability index is, setting by setting: under setting [1], 5.39 ± 0.1; under setting [2], 5.55 ± 0.16.

Consider KSLEGDLEDLKDQIAQLEASLAAA [LMNB1], for which the protein stability index is 4.48 ± 0.23 under setting [1] and 4.23 ± 0.44 under setting [2].

KSQDLAKIMADIRAQYDELARKNR [KRT18]: the protein stability index is, setting by setting: under setting [1], 3.05 ± 0.41; under setting [2], 3.29 ± 0.65.

As for KTIEELRDKILTATIENNRVILEI [KRT13], the protein stability index runs as follows: under setting [1], 2.57 ± 0.46; under setting [2], 2.71 ± 0.64.

Take KVQTVIILGKVILWILHLLLECYI [TMEM192]: the protein stability index is 2.5 ± 0.62 under setting [1] and 2.35 ± 0.26 under setting [2].

As to KYDPHTGHWTNVTPMATKRSGAGV [KLHL12], the protein stability index under setting [1] was determined as 3.69 ± 0.47 and the protein stability index under setting [2] amounted to 3.78 ± 0.17.

KYLKPSGNMFPTIGDVHLAPFTDE [CARM1]: the protein stability index worked out at 3.69 ± 0.1 under setting [1] and 3.61 ± 0.37 under setting [2].

On to KYLKVPQDPLKFYKKIYFCHSCQL [IQUB], for which the protein stability index was 2.24 ± 0.47 under setting [1] and 1.97 ± 0.2 under setting [2].

Take LACRLTPDMETKLLFMTSRVRFGQ [INTS3]: the protein stability index was 2.2 ± 0.16 under setting [1] and 2.23 ± 0.22 under setting [2].

As to LALGRERLGEIHTLPLPASLKAYL [SPSB1], the protein stability index is, setting by setting: under setting [1], 2.24 ± 0.38; under setting [2], 2.15 ± 0.19.

As to LAPAGQTSEESRPRLSQLSVTDVT [TNXB], the protein stability index under setting [1] was 4.64 ± 0.68 and the protein stability index under setting [2] came out at 5.13 ± 0.31.

In turn, LASLPLKADTKGFCNISLFEDLPL [PLAGL1] showed a protein stability index under setting [1] of 2.33 ± 0.19 and a protein stability index under setting [2] of 2.43 ± 0.1.

Regarding LASSLSPSQDERMRSPQNLHSQED [NOL4L], the protein stability index was found to be 5.37 ± 0.38 under setting [1] and 5.54 ± 0.12 under setting [2].

Turning to LATTEKKTEQQRRREKAVHRLRVQ [NOP53], the protein stability index by setting is: under setting [1], 4.34 ± 0.19; under setting [2], 4.37 ± 0.17.

As for LCEKEPLGNVLFSPICLSTSLSLA [SERPINB5], the protein stability index is, setting by setting: under setting [1], 2.13 ± 0.34; under setting [2], 2.18 ± 0.34.

Turning to LDDLSQKLKPLGEAEREFILNLKK [NLN], the protein stability index is, setting by setting: under setting [1], 3.36 ± 0.44; under setting [2], 3.07 ± 0.22.

On to LDGQLDFEEFVHYLQDHEKKLRLV [SLC25A25], for which the protein stability index is 3.3 ± 0.68 under setting [1] and 2.98 ± 0.33 under setting [2].

On to LDLSEEDSDDPSVTLELSQLSMLP [VDR], for which the protein stability index is 4.62 ± 0.3 under setting [1] and 4.73 ± 0.26 under setting [2].

Regarding LDNCVEVGRIANTYNLTEVDKYVN [KLHL13], the protein stability index is, setting by setting: under setting [1], 4.12 ± 0.17; under setting [2], 3.94 ± 0.23.

In turn, LDQPAFQQLVSFSESGSLGNSSGS [ISL2] returned a protein stability index under setting [1] of 4.43 ± 0.13 and a protein stability index under setting [2] of 4.56 ± 0.075.

On to LEDLERELDEPQHEMVAHRHRQEV [ZSCAN9], for which the protein stability index under setting [1] was determined as 5.56 ± 0.12 and the protein stability index under setting [2] came to 5.47 ± 0.072.

With LEECLRLLEATCPFGENAEFPADI [NFE2L1], the protein stability index was determined as 3.61 ± 0.68 under setting [1] and 3.61 ± 0.23 under setting [2].

For LEEVAVQQTGDDDEVDDFEDFIFS [PBXIP1], the protein stability index came out at 5.43 ± 0.36 under setting [1] and 5.41 ± 0.27 under setting [2].

For the sequence LEGFQAQGHPPSLFPPKAKSNQPK [ATE1], the protein stability index was 5.16 ± 0.19 under setting [1] and 5.19 ± 0.18 under setting [2].

Regarding LEHGADPTVKDLIGGFTALHYAAM [ASB7], the protein stability index turned out to be 2.5 ± 0.45 under setting [1] and 2.54 ± 0.38 under setting [2].

As to LEKCKTLVSQSNDLSSLRAKYPHD [SPACA9], the protein stability index reads like this: under setting [1], 4.29 ± 0.16; under setting [2], 4.4 ± 0.19.

For LELVINYQQLCIYWTKYYDFKNPI [OAS1], the protein stability index worked out at 3.22 ± 0.24 under setting [1] and 3.33 ± 0.18 under setting [2].

LEPMKSRAPQLHLEYRFYEQLGSG [CSNK1G3]: the protein stability index by setting is: under setting [1], 2.91 ± 0.2; under setting [2], 2.63 ± 0.47.

Consider LEPSTPYRFLLYGLHEGKRLGPLS [TNXB], for which the protein stability index runs as follows: under setting [1], 2.44 ± 0.3; under setting [2], 2.46 ± 0.15.

With LERLAYLHARLRELLCELGRPSMV [PRAME], the protein stability index by setting is: under setting [1], 2.42 ± 0.16; under setting [2], 2.3 ± 0.33.

On to LFIILQVGLNTIADLWYLFGDLSL [POMT2], for which the protein stability index by setting is: under setting [1], 3.06 ± 0.84; under setting [2], 3.17 ± 0.064.

For the sequence LFLFGYKFSGLYILSFTVIMVGFI [SLC35F2], the protein stability index runs as follows: under setting [1], 3.64 ± 0.12; under setting [2], 3.18 ± 0.41.

LFLGRILSLTSSASRLLTTALTSF [FANCE]: the protein stability index reads like this: under setting [1], 2.44 ± 0.1; under setting [2], 2.27 ± 0.19.

As for LGDLLMPTMAPAGQPAPVSMVPPS [SNAP91], the protein stability index reads like this: under setting [1], 3.26 ± 0.2; under setting [2], 3.51 ± 0.18.

Consider LGEDNQPETQLFWDKEPWFWHDTL [TLE6], for which the protein stability index runs as follows: under setting [1], 3.37 ± 0.35; under setting [2], 3.32 ± 0.27.

Regarding LGGVKKSATLRSFEGLMGTIKSKV [TPD52L3], the protein stability index is, setting by setting: under setting [1], 2.64 ± 0.3; under setting [2], 2.54 ± 0.26.

Consider LGSTKLSDKDKAVGIFNTVINPML [OR3A1], for which the protein stability index is, setting by setting: under setting [1], 3 ± 0.46; under setting [2], 3.19 ± 0.28.

LGSYKAQKTSRSSSIPCSGSLDGR [PPEF2]: the protein stability index is 4.177 ± 0.013 under setting [1] and 4.43 ± 0.14 under setting [2].

For the sequence LGVALFTMLAGHYPFQDSEPVLLF [TRIB3], the protein stability index under setting [1] worked out at 2.94 ± 0.59 and the protein stability index under setting [2] is 2.93 ± 0.27.

In the case of LHLKRQPKRRWLFWNSPSSPSSSA [RHOBTB2], the protein stability index was found to be 2.27 ± 0.25 under setting [1] and 2.53 ± 0.21 under setting [2].

With LHYKWIPVEDSHTADISSHFQEAI [DUSP5], the protein stability index was determined as 2.17 ± 0.23 under setting [1] and 2.25 ± 0.52 under setting [2].

As for LHYQDTDSDVPEQRDSKCKVKWTH [MYBL2], the protein stability index runs as follows: under setting [1], 3.77 ± 0.32; under setting [2], 4.05 ± 0.19.

As to LIKNFHQYSVEGGKETLTPSELRD [S100A14], the protein stability index reads like this: under setting [1], 4.15 ± 0.2; under setting [2], 4.3 ± 0.26.

For the sequence LILELVSGGELFDFLAEKESLTED [DAPK3], the protein stability index was found to be 1.94 ± 0.18 under setting [1] and 2.49 ± 0.43 under setting [2].

For LIQQFLTLRPDQQLHIFNTLRSHL [CDS2], the protein stability index under setting [1] worked out at 2.37 ± 0.16 and the protein stability index under setting [2] is 2.34 ± 0.27.

Turning to LIYASYFALIAVVFLASGAVSVMK [SLC19A2], the protein stability index reads like this: under setting [1], 2.95 ± 0.27; under setting [2], 3.44 ± 0.43.
